{"source": "paper doi:10.1101/343640", "molecular_target": "IMCC25003 KatG (bifunctional catalase-peroxidase of strain IMCC25003) ('Ca. Planktophila rubra' IMCC25003 (acI-A1 tribe, freshwater Actinobacteria))", "experiment": "SEC", "data": [{"substance": "IMCC25003 KatG (bifunctional catalase-peroxidase of strain IMCC25003) (enzyme)", "values": [{"measurement": "stoichiometry N", "result": 2}]}]}
